Measured values from patent publication US20060134719.

Assays:
[1] = target: T1, A-type natriuretic peptide (ANP), P01160
T1 chain: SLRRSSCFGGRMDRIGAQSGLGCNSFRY

[2] = target: T2, C-type natriuretic peptide 22 (CNP 22), P23582
T2 chain: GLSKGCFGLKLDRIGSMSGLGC

[3] = target: T3, melanin-concentrating hormone (MCH), P20382
T3 chain: DFDMLRCMLGRVYRPCWQV

[4] = target: neuropeptide Y (NPY), P01303
[5] = target: T4, vasoactive intestinal peptide (VIP), P01282
T4 chain: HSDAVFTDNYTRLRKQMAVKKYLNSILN

[6] = target: T5, α-melanocyte stimulating hormone (α-MSH), P01189 (not fully specified)
T5 chain: SYSMEHFRWGKPV

B1: purified signal-FLAG-ARS-extracellular enzyme after the treatment with trypsin beads (protein)
chain: STQGFHVDHTAELRGIRWTSSLRRETSDYHRTLTPTLEALFVSSFQKTELEASCVGCSVLNYRDGNSSVLVHFQLHFLLRPLQTLSLGLEEELLQRGIRARLREHGISLAAYGTIVSAELTGRHKGPLAERDFKSGRCPGNSFSCGNSQCVTKVNPECDDQEDCSDGSDEAHCECGLQPAWRMAGRIVGGMEASPGEFPWQASLRENKEHFCGAAIINARWLVSAAHCFNEFQDPTKWVAYVGATYLSGSEASTVRAQVVQIVKHPLYNADTADFDVAVLELTSPLPFGRHIQPVCLPAATHIFPPSKKCLISGWGYLKEDFLVKPEVLQKATVELLDQALCASLYGHSLTDRMVCAGYLDGKVDSCQGDSGGPLVCEEPSGRFFLAGIVSWGIGCAEARRPGVYARVTRLRDWILEATTKASMPLAPTMAPAPAAPSTAWPTSPESPVVSTPTKSMQALSTVPLDWVTVPKLQGIFGAER
cleavage of the substrate peptide, HPLC analysis after reaction at 37° C. for 16 hours [1]: the enzyme sample selectively cleaved VIP, NPY, ANP, CNP, α-MSH, and MCH | cleavage of the substrate peptide, HPLC analysis after reaction at 37° C. for 16 hours [2]: the enzyme sample selectively cleaved VIP, NPY, ANP, CNP, α-MSH, and MCH | cleavage of the substrate peptide, HPLC analysis after reaction at 37° C. for 16 hours [3]: the enzyme sample selectively cleaved VIP, NPY, ANP, CNP, α-MSH, and MCH | cleavage of the substrate peptide, HPLC analysis after reaction at 37° C. for 16 hours [4]: the enzyme sample selectively cleaved VIP, NPY, ANP, CNP, α-MSH, and MCH | cleavage of the substrate peptide, HPLC analysis after reaction at 37° C. for 16 hours [5]: the enzyme sample selectively cleaved VIP, NPY, ANP, CNP, α-MSH, and MCH | cleavage of the substrate peptide, HPLC analysis after reaction at 37° C. for 16 hours [6]: the enzyme sample selectively cleaved VIP, NPY, ANP, CNP, α-MSH, and MCH
